Results taken from PMC4603552.
Read-outs that look alike come from different tables or passages of the source.

Row | Substance | other (SUMOylation at K65) | other (SUMOylation at K160)
1 | PML (PML-IV): K65R (FLAG-PML-IV-GFP, CHO-K1) | decreases | 
2 | PML (PML-IV): K65R in FLAG-PML-IV (aa 49-633) | decreases | 
3 | PML (PML-IV): K160R (FLAG-PML-IV-GFP, CHO-K1) |  | decreases
